This is an account of results in publication PMC11405398.

In the assay the target is spore coat protein GerQ (Bacillus amyloiquefaciens). In words: cryo-EM structure; native filaments extracted from B. amyloiquefaciens biofilm; helical reconstruction with C9 point group symmetry, rise 34.2 Å, twist −18.4°; 3.3 Å; partially unbundled filaments.

“spore coat protein GerQ (natural protein)” showed a stoichiometry N (subunits per ring) of 9.
